Key:
EIF4A1 (human) = EIF4A1 (human) (UniProt P60842); assay: co-IP with control IgG, mass spectrometry; lysate of cells with N-FLAG B3GNT2
ILF3 (human) = ILF3 (human) (UniProt Q12906); assay: as above
MSN (human) = MSN (human) (UniProt P26038); assay: as above
STAU2 (human) = STAU2 (human) (UniProt Q9NUL3); assay: as above
ARF4 (human) = ARF4 (human) (UniProt P18085); assay: as above
EPRS (human) = EPRS (human) (UniProt P07814); assay: as above
ARHGEF2 (human) = ARHGEF2 (human) (UniProt Q92974); assay: as above
SLC25A5 (human) = SLC25A5 (human) (UniProt P05141); assay: as above
SEL1L (human) = SEL1L (human) (UniProt Q9UBV2); assay: as above
Chain of SEL1L (human) (Q9UBV2 22-794 limits assumed): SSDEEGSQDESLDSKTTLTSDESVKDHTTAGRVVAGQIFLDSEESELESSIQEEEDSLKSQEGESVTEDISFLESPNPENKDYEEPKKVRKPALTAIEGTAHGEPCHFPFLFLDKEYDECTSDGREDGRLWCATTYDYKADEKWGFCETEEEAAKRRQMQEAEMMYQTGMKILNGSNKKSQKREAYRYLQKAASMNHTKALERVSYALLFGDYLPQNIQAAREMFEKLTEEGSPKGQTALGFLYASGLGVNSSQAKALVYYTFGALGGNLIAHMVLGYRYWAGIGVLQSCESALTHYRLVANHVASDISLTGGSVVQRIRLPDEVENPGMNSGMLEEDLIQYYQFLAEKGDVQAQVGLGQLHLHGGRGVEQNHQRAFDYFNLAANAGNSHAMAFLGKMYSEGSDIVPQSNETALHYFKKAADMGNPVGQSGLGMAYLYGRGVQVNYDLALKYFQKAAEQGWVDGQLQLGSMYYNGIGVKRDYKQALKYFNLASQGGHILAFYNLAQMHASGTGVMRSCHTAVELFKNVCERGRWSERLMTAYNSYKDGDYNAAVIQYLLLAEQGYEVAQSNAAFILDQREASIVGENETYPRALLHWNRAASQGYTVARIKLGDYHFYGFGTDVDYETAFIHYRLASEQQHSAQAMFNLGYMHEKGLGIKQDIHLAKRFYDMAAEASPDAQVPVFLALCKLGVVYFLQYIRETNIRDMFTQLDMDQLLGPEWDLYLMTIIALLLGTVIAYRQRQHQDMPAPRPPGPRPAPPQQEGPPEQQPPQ

RPS27 (human) = RPS27 (human) (UniProt P42677); assay: as above
MYO1C (human) = MYO1C (human) (UniProt O00159); assay: as above
IPO13 (human) = IPO13 (human) (UniProt O94829); assay: as above
RPS18 = RPS18 (UniProt P62269); assay: co-IP, IgG control, N-FLAG B3GNT2 cell lysate, mass spectrometry
CDSN = CDSN (UniProt Q15517); assay: as above
RPS19 = RPS19 (UniProt P39019); assay: as above
RPS13 = RPS13 (UniProt P62277); assay: as above
RPL3 = RPL3 (UniProt P39023); assay: as above
DNAJA2 = DNAJA2 (UniProt O60884); assay: as above
MTDH = MTDH (UniProt Q86UE4); assay: as above
LIMA1 = LIMA1 (UniProt Q9UHB6); assay: as above
SRSF3 = SRSF3 (UniProt P84103); assay: as above
RPS23 = RPS23 (UniProt P62266); assay: as above
POF1B = POF1B (UniProt Q8WVV4); assay: as above
SRSF1 = SRSF1 (UniProt Q07955); assay: as above
Chain of SRSF1 (Q07955 2-248 limits assumed): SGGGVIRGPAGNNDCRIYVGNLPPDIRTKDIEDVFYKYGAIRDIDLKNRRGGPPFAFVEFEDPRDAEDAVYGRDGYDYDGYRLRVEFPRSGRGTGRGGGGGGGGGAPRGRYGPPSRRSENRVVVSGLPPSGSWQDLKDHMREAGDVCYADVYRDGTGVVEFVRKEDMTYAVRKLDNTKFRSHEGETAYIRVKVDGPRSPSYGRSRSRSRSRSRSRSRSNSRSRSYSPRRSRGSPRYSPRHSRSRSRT

TMEM59 = TMEM59 (UniProt Q9BXS4); assay: as above
RPL5 = RPL5 (UniProt P46777); assay: as above
RPL37A = RPL37A (UniProt P61513); assay: as above
HNRNPU = HNRNPU (UniProt Q00839); assay: as above
Chain of HNRNPU (Q00839 2-825 limits assumed): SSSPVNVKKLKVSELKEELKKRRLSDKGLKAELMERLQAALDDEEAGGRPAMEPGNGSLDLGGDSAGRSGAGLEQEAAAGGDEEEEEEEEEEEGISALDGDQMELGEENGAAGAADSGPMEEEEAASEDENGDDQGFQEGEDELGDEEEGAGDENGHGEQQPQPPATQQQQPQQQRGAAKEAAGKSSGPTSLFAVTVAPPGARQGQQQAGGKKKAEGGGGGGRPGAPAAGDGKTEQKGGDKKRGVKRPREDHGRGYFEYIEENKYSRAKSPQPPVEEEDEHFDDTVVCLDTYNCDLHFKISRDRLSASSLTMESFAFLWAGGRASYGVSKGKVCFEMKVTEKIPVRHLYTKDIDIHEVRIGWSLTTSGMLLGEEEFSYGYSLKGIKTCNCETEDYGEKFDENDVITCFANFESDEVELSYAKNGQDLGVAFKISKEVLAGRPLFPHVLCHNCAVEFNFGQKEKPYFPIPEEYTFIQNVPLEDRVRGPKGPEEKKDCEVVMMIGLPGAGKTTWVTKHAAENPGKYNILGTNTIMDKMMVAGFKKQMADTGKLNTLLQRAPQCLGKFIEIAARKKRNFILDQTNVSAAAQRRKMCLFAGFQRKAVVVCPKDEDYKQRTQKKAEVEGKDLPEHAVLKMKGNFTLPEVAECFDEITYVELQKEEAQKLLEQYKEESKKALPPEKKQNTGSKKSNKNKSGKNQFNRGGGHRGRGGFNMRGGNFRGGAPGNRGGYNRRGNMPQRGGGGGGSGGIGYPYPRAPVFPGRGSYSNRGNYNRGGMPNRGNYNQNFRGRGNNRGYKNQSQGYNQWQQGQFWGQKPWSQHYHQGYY

NCCRP1 = NCCRP1 (UniProt Q6ZVX7); assay: as above
Chain of NCCRP1 (Q6ZVX7 whole entry): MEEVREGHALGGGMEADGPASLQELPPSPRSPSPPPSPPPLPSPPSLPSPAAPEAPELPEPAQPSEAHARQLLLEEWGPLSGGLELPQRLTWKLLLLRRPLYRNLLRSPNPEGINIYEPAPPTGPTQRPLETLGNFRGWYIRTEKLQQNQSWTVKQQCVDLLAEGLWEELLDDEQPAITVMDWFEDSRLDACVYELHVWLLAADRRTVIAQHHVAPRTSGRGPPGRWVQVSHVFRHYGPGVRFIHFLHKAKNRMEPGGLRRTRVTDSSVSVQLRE

RPL19 = RPL19 (UniProt P84098); assay: as above
ITGB3 = ITGB3 (UniProt P05106); assay: as above
RPS16 = RPS16 (UniProt P62249); assay: as above
ARG1 = ARG1 (UniProt P05089); assay: as above
CFL1 = CFL1 (UniProt P23528); assay: as above
HSPB1 = HSPB1 (UniProt P04792); assay: as above
TXN = TXN (UniProt P10599); assay: as above
DDX20 = DDX20 (UniProt Q9UHI6); assay: as above
TNKS1BP1 = TNKS1BP1 (UniProt Q9C0C2); assay: as above
EIF4G1 = EIF4G1 (UniProt Q04637); assay: as above

Chain of MSN (human) (P26038 2-577 limits assumed): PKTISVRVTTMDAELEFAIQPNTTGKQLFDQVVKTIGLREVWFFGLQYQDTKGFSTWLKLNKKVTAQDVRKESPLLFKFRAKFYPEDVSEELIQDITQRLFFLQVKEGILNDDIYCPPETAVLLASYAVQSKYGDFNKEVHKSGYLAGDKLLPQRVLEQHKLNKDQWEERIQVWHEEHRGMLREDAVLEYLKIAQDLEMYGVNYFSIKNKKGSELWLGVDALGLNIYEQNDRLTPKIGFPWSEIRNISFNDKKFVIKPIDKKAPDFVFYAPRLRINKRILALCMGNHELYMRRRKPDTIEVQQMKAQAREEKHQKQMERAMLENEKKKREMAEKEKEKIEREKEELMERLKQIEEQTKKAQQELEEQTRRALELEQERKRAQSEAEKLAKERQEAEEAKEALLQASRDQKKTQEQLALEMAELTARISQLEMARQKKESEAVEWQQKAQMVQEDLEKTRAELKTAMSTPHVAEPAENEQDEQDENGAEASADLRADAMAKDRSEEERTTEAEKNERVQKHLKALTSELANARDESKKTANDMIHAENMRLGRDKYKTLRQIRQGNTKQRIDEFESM
Chain of EPRS (human) (P07814 whole entry): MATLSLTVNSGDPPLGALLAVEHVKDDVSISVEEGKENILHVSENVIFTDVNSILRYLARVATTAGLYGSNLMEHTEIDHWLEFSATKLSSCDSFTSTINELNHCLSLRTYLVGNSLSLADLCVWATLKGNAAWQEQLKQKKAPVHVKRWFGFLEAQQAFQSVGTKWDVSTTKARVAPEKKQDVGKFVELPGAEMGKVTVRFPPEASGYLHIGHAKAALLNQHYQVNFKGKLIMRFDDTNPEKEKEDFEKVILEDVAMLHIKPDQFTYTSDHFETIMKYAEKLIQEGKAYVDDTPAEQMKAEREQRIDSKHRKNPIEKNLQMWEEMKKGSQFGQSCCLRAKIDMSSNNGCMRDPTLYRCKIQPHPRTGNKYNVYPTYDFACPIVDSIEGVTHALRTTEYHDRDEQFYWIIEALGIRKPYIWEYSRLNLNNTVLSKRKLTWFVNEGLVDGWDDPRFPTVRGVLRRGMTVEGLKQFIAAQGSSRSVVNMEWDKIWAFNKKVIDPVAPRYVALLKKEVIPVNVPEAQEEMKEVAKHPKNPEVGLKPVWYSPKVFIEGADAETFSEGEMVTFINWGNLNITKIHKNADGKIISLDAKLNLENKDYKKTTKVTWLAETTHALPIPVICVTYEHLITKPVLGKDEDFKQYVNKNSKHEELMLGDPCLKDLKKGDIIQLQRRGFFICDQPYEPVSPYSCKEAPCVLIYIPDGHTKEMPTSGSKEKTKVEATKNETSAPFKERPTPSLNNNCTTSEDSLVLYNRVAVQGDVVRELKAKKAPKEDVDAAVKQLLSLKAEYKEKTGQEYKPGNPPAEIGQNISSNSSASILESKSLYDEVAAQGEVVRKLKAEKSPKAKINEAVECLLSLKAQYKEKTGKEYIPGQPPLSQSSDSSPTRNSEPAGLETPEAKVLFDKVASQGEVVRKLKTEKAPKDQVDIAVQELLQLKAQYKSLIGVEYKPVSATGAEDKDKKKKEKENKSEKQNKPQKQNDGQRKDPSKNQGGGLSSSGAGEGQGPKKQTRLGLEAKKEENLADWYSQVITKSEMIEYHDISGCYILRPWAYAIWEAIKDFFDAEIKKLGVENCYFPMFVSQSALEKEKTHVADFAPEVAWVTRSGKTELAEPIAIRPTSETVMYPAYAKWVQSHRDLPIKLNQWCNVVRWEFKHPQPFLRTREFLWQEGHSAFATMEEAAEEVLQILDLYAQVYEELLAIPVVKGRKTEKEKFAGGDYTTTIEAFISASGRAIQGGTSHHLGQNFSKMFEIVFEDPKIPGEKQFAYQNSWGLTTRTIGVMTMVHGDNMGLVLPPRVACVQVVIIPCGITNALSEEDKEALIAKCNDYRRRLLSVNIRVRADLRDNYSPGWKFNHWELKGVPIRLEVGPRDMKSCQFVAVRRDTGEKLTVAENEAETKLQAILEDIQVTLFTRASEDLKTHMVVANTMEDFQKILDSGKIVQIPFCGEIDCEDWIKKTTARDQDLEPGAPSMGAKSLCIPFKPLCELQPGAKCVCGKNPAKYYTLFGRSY
Chain of STAU2 (human) (Q9NUL3 whole entry): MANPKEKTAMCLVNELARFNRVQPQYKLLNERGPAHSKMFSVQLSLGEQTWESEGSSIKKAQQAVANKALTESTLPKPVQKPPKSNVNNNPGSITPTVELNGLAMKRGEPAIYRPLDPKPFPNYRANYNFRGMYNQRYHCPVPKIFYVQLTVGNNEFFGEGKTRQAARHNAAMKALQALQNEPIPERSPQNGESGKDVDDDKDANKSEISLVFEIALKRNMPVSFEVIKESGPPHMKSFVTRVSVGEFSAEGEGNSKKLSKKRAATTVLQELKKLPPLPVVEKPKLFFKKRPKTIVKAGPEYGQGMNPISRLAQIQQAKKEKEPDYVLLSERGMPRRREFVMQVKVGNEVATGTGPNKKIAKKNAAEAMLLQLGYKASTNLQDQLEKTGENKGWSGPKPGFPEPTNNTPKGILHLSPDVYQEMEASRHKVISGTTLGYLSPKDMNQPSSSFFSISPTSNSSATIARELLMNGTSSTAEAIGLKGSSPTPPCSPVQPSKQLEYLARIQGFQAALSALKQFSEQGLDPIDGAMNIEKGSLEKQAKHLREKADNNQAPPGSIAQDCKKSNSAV
Chain of ARF4 (human) (P18085 2-180 limits assumed): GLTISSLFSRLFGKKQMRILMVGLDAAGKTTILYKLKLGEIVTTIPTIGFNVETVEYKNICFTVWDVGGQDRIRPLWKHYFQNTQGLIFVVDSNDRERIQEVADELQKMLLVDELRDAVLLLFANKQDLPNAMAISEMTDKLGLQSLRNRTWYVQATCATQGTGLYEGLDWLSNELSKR

Substance: IgG control (Millipore Sigma 12-371) (antibody)
- co-IP mass spectrometry count (EIF4A1 (human)): 0
- co-IP mass spectrometry count (ILF3 (human)): 0
- co-IP mass spectrometry count (MSN (human)): 0
- co-IP mass spectrometry count (STAU2 (human)): 0
- co-IP mass spectrometry count (ARF4 (human)): 0
- co-IP mass spectrometry count (EPRS (human)): 0
- co-IP mass spectrometry count (ARHGEF2 (human)): 0
- co-IP mass spectrometry count (SLC25A5 (human)): 6
- co-IP mass spectrometry count (SEL1L (human)): 0
- co-IP mass spectrometry count (RPS27 (human)): 0
- co-IP mass spectrometry count (MYO1C (human)): 0
- co-IP mass spectrometry count (IPO13 (human)): 0
- co-IP mass spectrometry count (RPS18): 11
- co-IP mass spectrometry count (CDSN): 0
- co-IP mass spectrometry count (RPS19): 5
- co-IP mass spectrometry count (RPS13): 2
- co-IP mass spectrometry count (RPL3): 3
- co-IP mass spectrometry count (DNAJA2): 0
- co-IP mass spectrometry count (MTDH): 0
- co-IP mass spectrometry count (LIMA1): 3
- co-IP mass spectrometry count (SRSF3): 4
- co-IP mass spectrometry count (RPS23): 6
- co-IP mass spectrometry count (POF1B): 0
- co-IP mass spectrometry count (SRSF1): 5
- co-IP mass spectrometry count (TMEM59): 0
- co-IP mass spectrometry count (RPL5): 0
- co-IP mass spectrometry count (RPL37A): 4
- co-IP mass spectrometry count (HNRNPU): 2
- co-IP mass spectrometry count (NCCRP1): 4
- co-IP mass spectrometry count (RPL19): 2
- co-IP mass spectrometry count (ITGB3): 0
- co-IP mass spectrometry count (RPS16): 10
- co-IP mass spectrometry count (ARG1): 4
- co-IP mass spectrometry count (CFL1): 3
- co-IP mass spectrometry count (HSPB1): 4
- co-IP mass spectrometry count (TXN): 3
- co-IP mass spectrometry count (DDX20): 0
- co-IP mass spectrometry count (TNKS1BP1): 4
- co-IP mass spectrometry count (EIF4G1): 2
